Legend:
ZNF524 ZF1-4 (crystal) = biological target: T1, ZNF524 ZF1-4 (crystal) (human, UniProt Q96C55 107-237); test: crystal structure 2.40 A; Zn2+; ITC: 20 mM Tris-HCl pH 7.5, 150 mM NaCl, 20 C; pull-down: 50 mM Tris-HCl pH 7.5, 150 mM NaCl, 0.5% IGEPAL, 5 mM MgCl2, 1 mM DTT, salmon sperm DNA, 4 C; details: protein: recombinant; tags: none (GST removed by TEV); 5' overhang 1 nt at each end (A and T)
T1 sequence: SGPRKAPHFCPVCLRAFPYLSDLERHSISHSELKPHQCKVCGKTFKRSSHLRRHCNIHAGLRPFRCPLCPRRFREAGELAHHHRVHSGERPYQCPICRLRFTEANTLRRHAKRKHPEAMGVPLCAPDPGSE

[1] = biological target: T2, ZNF524 ZF1-4 minimal domain (human, UniProt Q96C55 110-223); test: ITC; ITC: 20 mM Tris-HCl pH 7.5, 150 mM NaCl, 20 C; pull-down: 50 mM Tris-HCl pH 7.5, 150 mM NaCl, 0.5% IGEPAL, 5 mM MgCl2, 1 mM DTT, salmon sperm DNA, 4 C; details: protein: recombinant; tags: none (GST removed by TEV); blunt
T2 sequence: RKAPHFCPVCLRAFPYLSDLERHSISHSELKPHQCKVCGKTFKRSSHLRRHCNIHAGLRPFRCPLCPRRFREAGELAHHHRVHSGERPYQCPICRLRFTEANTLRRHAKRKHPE

[2] = biological target: T2, ZNF524 ZF1-4 minimal domain; test: ITC; annealed in 100 mM NaCl; ITC: 20 mM Tris-HCl pH 7.5, 150 mM NaCl, 20 C; pull-down: 50 mM Tris-HCl pH 7.5, 150 mM NaCl, 0.5% IGEPAL, 5 mM MgCl2, 1 mM DTT, salmon sperm DNA, 4 C; details: protein: recombinant, tags: none (GST removed by TEV), single strand
ZNF524 ZF1-4 R131A = biological target: T3, ZNF524 ZF1-4 R131A (human, UniProt Q96C55 110-223, R131A); test: ITC; ITC: 20 mM Tris-HCl pH 7.5, 150 mM NaCl, 20 C; pull-down: 50 mM Tris-HCl pH 7.5, 150 mM NaCl, 0.5% IGEPAL, 5 mM MgCl2, 1 mM DTT, salmon sperm DNA, 4 C; details: protein: recombinant; tags: none (GST removed by TEV); blunt
T3 sequence: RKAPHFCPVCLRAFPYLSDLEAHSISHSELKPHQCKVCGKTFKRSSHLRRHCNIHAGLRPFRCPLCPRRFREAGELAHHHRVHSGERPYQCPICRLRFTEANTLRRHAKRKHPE

[3] = biological target: T4, ZNF524 ZF1-3 (ZF4 removed) (human, UniProt Q96C55 110-196); test: as above; details: protein: recombinant; tags: none (GST removed by TEV); blunt
T4 sequence: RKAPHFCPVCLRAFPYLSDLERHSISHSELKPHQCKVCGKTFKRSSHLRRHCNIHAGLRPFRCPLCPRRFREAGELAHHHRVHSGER

ZNF524 ZF1-4 E184A = biological target: T5, ZNF524 ZF1-4 E184A (human, UniProt Q96C55 110-223, E184A); test: as above; details: protein: recombinant; tags: none (GST removed by TEV); blunt
T5 sequence: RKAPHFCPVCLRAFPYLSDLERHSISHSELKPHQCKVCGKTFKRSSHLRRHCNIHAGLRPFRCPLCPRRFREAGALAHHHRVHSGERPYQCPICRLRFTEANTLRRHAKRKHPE

ZNF524 ZF1-4 S155A = biological target: T6, ZNF524 ZF1-4 S155A (human, UniProt Q96C55 110-223, S155A); test: as above; details: protein: recombinant; tags: none (GST removed by TEV); blunt
T6 sequence: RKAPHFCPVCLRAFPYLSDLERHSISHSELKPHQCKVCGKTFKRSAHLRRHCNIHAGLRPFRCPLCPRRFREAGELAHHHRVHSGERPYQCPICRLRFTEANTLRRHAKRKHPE

ZNF524 ZF2-3 = biological target: T7, ZNF524 ZF2-3 (human, UniProt Q96C55 138-196); test: as above; details: protein: recombinant; tags: none (GST removed by TEV); blunt
T7 sequence: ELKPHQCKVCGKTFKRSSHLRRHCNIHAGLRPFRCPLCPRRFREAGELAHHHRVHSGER

ZNF524 ZF2M = biological target: T8, ZNF524 ZF2M (human, UniProt Q96C55 110-223, R153A;S155A;H156A;R159A); test: as above; details: protein: recombinant; tags: none (GST removed by TEV); blunt
T8 sequence: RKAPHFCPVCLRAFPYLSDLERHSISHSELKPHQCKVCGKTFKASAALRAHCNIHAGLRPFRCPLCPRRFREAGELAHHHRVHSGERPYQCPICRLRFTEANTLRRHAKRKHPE

ZNF524 ZF1-4 R215A = biological target: T9, ZNF524 ZF1-4 R215A (human, UniProt Q96C55 110-223, R215A); test: as above; details: protein: recombinant; tags: none (GST removed by TEV); blunt
T9 sequence: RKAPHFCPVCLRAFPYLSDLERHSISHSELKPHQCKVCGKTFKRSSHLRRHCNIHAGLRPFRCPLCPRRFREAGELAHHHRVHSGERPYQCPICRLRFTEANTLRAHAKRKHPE

ZNF524 ZF1-4 R159A = biological target: T10, ZNF524 ZF1-4 R159A (human, UniProt Q96C55 110-223, R159A); test: as above; details: protein: recombinant; tags: none (GST removed by TEV); blunt
T10 sequence: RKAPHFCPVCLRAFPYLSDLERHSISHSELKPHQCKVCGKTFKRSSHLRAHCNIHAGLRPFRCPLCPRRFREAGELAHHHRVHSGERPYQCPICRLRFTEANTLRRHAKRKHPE

ZNF524 ZF3-4 = biological target: T11, ZNF524 ZF3-4 (human, UniProt Q96C55 166-223); test: as above; details: protein: recombinant; tags: none (GST removed by TEV); blunt
T11 sequence: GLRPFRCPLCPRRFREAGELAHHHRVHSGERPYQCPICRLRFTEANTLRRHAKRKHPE

ZNF524 ZF1-4 R180A = biological target: T12, ZNF524 ZF1-4 R180A (human, UniProt Q96C55 110-223, R180A); test: as above; details: protein: recombinant; tags: none (GST removed by TEV); blunt
T12 sequence: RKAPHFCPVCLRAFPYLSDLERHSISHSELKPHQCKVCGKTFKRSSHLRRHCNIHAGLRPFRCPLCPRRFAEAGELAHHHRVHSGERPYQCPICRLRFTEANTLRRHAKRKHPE

ZNF524 ZF1-4 N211G = biological target: T13, ZNF524 ZF1-4 N211G (human, UniProt Q96C55 110-223, N211G); test: as above; details: protein: recombinant; tags: none (GST removed by TEV); blunt
T13 sequence: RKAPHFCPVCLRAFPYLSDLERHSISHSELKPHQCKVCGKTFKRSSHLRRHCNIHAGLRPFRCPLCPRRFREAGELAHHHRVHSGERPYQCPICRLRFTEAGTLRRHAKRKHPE

ZNF524 ZF1-4 H156A = biological target: T14, ZNF524 ZF1-4 H156A (human, UniProt Q96C55 110-223, H156A); test: as above; details: protein: recombinant; tags: none (GST removed by TEV); blunt
T14 sequence: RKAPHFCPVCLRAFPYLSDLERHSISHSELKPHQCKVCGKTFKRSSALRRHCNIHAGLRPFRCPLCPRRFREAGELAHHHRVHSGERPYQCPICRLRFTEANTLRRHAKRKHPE

[4] = biological target: T15, ZNF524 ZF2-4 (ZF1 removed) (human, UniProt Q96C55 138-223); test: as above; details: protein: recombinant; tags: none (GST removed by TEV); blunt
T15 sequence: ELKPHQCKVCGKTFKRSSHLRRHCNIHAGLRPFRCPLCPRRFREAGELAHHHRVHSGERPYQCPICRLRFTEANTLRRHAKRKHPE

ZNF524 ZF1-4 R153A = biological target: T16, ZNF524 ZF1-4 R153A (human, UniProt Q96C55 110-223, R153A); test: as above; details: protein: recombinant; tags: none (GST removed by TEV); blunt
T16 sequence: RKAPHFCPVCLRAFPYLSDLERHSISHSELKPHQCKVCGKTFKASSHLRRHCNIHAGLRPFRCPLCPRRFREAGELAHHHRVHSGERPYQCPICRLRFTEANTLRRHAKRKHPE

ZNF524 ZF1-4 E181A = biological target: T17, ZNF524 ZF1-4 E181A (human, UniProt Q96C55 110-223, E181A); test: as above; details: protein: recombinant; tags: none (GST removed by TEV); blunt
T17 sequence: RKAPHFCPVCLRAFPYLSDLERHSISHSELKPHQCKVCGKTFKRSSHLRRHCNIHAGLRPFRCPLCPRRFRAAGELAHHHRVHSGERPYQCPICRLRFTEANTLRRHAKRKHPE

B1: telomeric crystal duplex (dsDNA)
DNA 1: AGGGTTAGGGTTAGG
DNA 2: TCCTAACCCTAACCC
binding result (ZNF524 ZF1-4 (crystal)): binds

B2: TTGGGG duplex (dsDNA)
DNA 1: GGTTGGGGTTGG
DNA 2: CCAACCCCAACC
Kd [1]: 330 ± 130 nM

TTAGGGTTAGGGTTAGGGTTAGGG (ssDNA) [(TTAGGG)4-ssDNA]
binding result [2]: no binding

B3: TTAGGG 12-bp duplex (dsDNA)
DNA 1: GGTTAGGGTTAG
DNA 2: CTAACCCTAACC
Kd (ZNF524 ZF1-4 R131A): 340 ± 50 nM
Kd [1]: 90 ± 20 nM
Kd [3]: 590 ± 150 nM
Kd (ZNF524 ZF1-4 E184A): 230 ± 130 nM
Kd (ZNF524 ZF1-4 S155A): 250 ± 30 nM
Kd (ZNF524 ZF2-3): 1210 ± 790 nM
binding result (ZNF524 ZF2M): no binding
Kd (ZNF524 ZF1-4 R215A): 220 ± 60 nM
Kd (ZNF524 ZF1-4 R159A): 100 ± 90 nM
binding result (ZNF524 ZF3-4): no binding
Kd (ZNF524 ZF1-4 R180A): 410 ± 80 nM
Kd (ZNF524 ZF1-4 N211G): 170 ± 30 nM
Kd (ZNF524 ZF1-4 H156A): 60 ± 40 nM
Kd [4]: 620 ± 100 nM
Kd (ZNF524 ZF1-4 R153A): 150 ± 40 nM
Kd (ZNF524 ZF1-4 E181A): 420 ± 90 nM

B4: GTGAGT duplex (dsDNA)
DNA 1: GTGTGAGTGTGA
DNA 2: TCACACTCACAC
binding result [1]: no binding

B5: TCAGGG duplex (dsDNA)
DNA 1: GGTCAGGGTCAG
DNA 2: CTGACCCTGACC
Kd [1]: 280 ± 40 nM

B6: TGAGGG duplex (dsDNA)
DNA 1: GGTGAGGGTGAG
DNA 2: CTCACCCTCACC
Kd [1]: 270 ± 110 nM

Source: article PMC10716145, “ZNF524 directly interacts with telomeric DNA and supports telomere integrity”
